Substrate in the data set: NC(=O)c1ccc[n+]([C@@H]2O[C@H](COP(=O)([O-])OP(=O)(O)OC[C@H]3O[C@@H](n4cnc5c(N)ncnc54)[C@H](O)[C@@H]3O)[C@@H](O)[C@H]2O)c1
In words: purified protein, by the assay type. The note with it: pH 7.25, 30.0 °C.

“And” between values parts separate entries of the source, which are not always exact repeats. Identical values can stand only once.

B1: PtxD (Stutzerimonas stutzeri) (protein)
chain: MLPKLVITHRVHDEILQLLAPHCELMTNQTDSTLTREEILRRCRDAQAMMAFMPDRVDADFLQACPELRVVGCALKGFDNFDVDACTARGVWLTFVPDLLTVPTAELAIGLAVGLGRHLRAADAFVRSGEFQGWQPQFYGTGLDNATVGILGMGAIGLAMADRLQGWGATLQYHEAKALDTQTEQRLGLRQVACSELFASSDFILLALPLNADTQHLVNAELLALVRPGALLVNPCRGSVVDEAAVLAALERGQLGGYAADVFEMEDWARADRPRLIDPALLAHPNTLFTPHIGSAVRAVRLEIERCAAQNIIQVLAGARPINAANRLPKAEPAAC
In the case of B1, the Km is, setting by setting: (other: Table 4, NAP as A, fit to Equilibrium ordered mechanism) 4520 µM; (other: Table 4, NAP as A, fit to Pingpong mechanism) 12800 µM; (other: substrates of PtxD) 54.6 ± 6.7 µM and 50 µM.

The record behind these values is patent US20040091985A1, “NAD phosphite oxidoreductase, a novel catalyst from bacteria for regeneration of NAD(P)H” (priority 2002, published 2004).
